Patent publication US11110154

Assays:
Experiment in all cases: cell_activity
[1] = system: ZFP 33074-KOX (ZFP-TF repressor) (synthetic construct); details: lentiviral, CAG17/48 neurons; apoptosis ~50% to 20%; AAV in Q175 mice reduced mHtt aggregates (P<0.001); indirect evidence of binding; scale: % increase of intracellular ATP in HD neurons
[2] = system: ZFP 30640 (ZFP-TF repressor) (synthetic construct); details: AAV, Q175 mouse striatum (~179 CAG), injected at 2 months; indirect evidence of binding
[3] = system: ZFP 30645 (ZFP-TF repressor) (synthetic construct); details: AAV, Q175 mouse striatum (~179 CAG), injected at 2 months; indirect evidence of binding

**Q.** With “AGCAGCAGCAGCAGCAGCAGCAGCAGCA (double strand) [Htt CAG repeat, 33074 target]” as the sequence, how does the activity [1] read?
**A.** Its activity is 60.

**Q.** “CAGCAGCAGCAGCAGCAGCAGCAGCAGC (double strand) [Htt CAG repeat, 30640 target]” was tested. Which activity (% reduction of nuclear Htt aggregates) [2] did it give?
**A.** The activity (% reduction of nuclear Htt aggregates) was over 90.

**Q.** “CAGCAGCAGCAGCAGCAGCAGCAGCAGC (double strand) [Htt CAG repeat, 30645 target]” was tested. Which activity (% reduction of nuclear Htt aggregates) [3] did it give?
**A.** Its activity (% reduction of nuclear Htt aggregates) is over 90.
